The text below walks through data of patent EP4782541A1 (Nanjing Probio Biotech Co., Ltd., dated 2026).

For test [1], the target named is T1, human ROR1 protein (human, UniProt Q01973 30-403, limits assumed).
T1 construct: Recombinant antigen of the SPR assay; also called ROR1 (SPR ligand)
As to the kind of experiment: SPR (Biacore 8K); human ROR1 amine-coupled at 0.10 ug/mL as ligand, antibody as analyte.

Test [2] addresses T1, human ROR1 protein. As to the kind of experiment: SPR (Biacore 8K); human ROR1 amine-coupled at 12.50 ug/mL as ligand, antibody as analyte.
The target of test [3] is T1, human ROR1 protein. As to the kind of experiment: SPR (Biacore 8K); human ROR1 amine-coupled at 62.50 ug/mL as ligand, antibody as analyte.
The target of test [4] is T1, human ROR1 protein. As to the kind of experiment: SPR (Biacore 8K); human ROR1 amine-coupled at 2.50 ug/mL as ligand, antibody as analyte.
The target in test [5] is T1, human ROR1 protein. As to the kind of experiment: SPR (Biacore 8K); human ROR1 amine-coupled at 0.50 ug/mL as ligand, antibody as analyte.
Test [6] concerns the target T1, human ROR1 protein. As to the kind of experiment: SPR (Biacore 8K); human ROR1 amine-coupled at 0.05 ug/mL as ligand, antibody as analyte.
The target of test [7] is human ROR1 (on CHO-K1/ROR1 cells and ROR1 tumour cell lines) (human) (UniProt Q01973). As to the kind of experiment: cell-based or functional assay.
Test [8] concerns the target T2, human CD3 (on Jurkat cells) (human, UniProt P07766 23-207; P09693 23-182; P04234 22-171).
T2 construct: whole, on cells
As to the kind of experiment: flow cytometry on Jurkat cells expressing human CD3.

T1 sequence (Q01973 30-403 limits assumed): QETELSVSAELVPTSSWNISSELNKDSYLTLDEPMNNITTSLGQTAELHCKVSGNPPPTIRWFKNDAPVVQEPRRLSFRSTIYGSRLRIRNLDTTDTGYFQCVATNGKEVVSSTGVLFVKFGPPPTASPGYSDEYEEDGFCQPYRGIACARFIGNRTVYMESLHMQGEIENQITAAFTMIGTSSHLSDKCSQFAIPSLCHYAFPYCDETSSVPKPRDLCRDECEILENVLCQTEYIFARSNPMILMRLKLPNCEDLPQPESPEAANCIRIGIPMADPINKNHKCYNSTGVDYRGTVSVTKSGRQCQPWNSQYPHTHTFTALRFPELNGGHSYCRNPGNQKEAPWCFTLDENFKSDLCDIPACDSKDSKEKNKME
Chain of human ROR1 (on CHO-K1/ROR1 cells and ROR1 tumour cell lines) (human) (Q01973 30-937): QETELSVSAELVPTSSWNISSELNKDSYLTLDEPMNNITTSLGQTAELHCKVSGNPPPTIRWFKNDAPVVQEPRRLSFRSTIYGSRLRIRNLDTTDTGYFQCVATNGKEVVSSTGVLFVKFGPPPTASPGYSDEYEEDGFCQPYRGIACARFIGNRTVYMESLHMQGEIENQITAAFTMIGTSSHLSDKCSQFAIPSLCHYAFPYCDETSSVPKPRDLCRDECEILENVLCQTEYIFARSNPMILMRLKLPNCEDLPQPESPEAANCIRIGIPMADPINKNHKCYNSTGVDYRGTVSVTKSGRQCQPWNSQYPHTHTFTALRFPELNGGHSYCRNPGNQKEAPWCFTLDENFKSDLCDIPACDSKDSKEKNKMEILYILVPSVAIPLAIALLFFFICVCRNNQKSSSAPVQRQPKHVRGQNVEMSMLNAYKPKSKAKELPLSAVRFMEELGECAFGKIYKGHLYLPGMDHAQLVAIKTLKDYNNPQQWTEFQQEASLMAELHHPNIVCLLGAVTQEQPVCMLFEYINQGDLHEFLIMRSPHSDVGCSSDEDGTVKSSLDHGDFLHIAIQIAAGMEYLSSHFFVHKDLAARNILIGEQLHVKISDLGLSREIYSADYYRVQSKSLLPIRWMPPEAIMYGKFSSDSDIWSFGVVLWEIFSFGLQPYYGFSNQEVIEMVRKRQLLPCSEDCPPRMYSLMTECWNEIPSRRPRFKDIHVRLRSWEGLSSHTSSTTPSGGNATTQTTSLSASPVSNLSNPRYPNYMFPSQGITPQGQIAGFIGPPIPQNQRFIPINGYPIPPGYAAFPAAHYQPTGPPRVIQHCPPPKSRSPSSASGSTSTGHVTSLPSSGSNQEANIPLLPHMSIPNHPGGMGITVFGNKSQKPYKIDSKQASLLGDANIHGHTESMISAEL
T2 sequence (P07766 23-207, chain 1 of 3): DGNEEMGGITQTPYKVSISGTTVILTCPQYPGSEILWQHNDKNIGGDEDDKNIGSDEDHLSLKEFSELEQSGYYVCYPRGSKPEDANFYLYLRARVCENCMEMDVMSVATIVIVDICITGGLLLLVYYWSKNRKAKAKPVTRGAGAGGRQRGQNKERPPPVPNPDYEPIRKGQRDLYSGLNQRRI
T2 sequence (P09693 23-182, chain 2 of 3): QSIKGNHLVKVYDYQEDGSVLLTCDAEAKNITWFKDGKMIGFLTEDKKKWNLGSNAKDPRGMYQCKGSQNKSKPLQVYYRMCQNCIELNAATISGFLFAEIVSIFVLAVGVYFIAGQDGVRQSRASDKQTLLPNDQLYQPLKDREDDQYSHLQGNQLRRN
T2 sequence (P04234 22-171, chain 3 of 3): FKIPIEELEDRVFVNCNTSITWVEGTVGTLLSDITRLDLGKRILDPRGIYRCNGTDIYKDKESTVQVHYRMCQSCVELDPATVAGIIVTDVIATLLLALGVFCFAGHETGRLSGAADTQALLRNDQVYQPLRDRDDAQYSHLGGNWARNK

On to NVG-111 (bispecific antibody), for which the Kd came out at 1.82 nM in test [1]; 1.49 nM in test [2]; 1.71 nM in test [3]; 1.64 nM in test [4]; 1.92 nM in test [5]; 2.59 nM in test [6]. The koff is 0.00113 s⁻¹ in test [1]; 0.00109 s⁻¹ in test [2]; 0.00101 s⁻¹ in test [3]; 0.00118 s⁻¹ in test [4]; 0.00122 s⁻¹ in test [5]; 0.00138 s⁻¹ in test [6]. The kon in test [1] stood at 622000 M⁻¹ s⁻¹; in test [2], 733000 M⁻¹ s⁻¹; in test [3] it was 593000 M⁻¹ s⁻¹; in test [4] it was 723000 M⁻¹ s⁻¹; in test [5], 632000 M⁻¹ s⁻¹; in test [6], 532000 M⁻¹ s⁻¹. The EC50 of T cell activation based on reporter gene (luciferase), target cells A375 in test [7] was 0.0329 nM. Moreover, in test [7], the EC50 of T cell activation based on reporter gene (luciferase), target cells Jeko-1 amounted to 0.0358 nM. In addition, the EC50 of T cell activation based on reporter gene (luciferase), target cells MDA-MB-231 in test [7] is 0.01 nM.

B1: BsAb-16 (bispecific antibody, human IgG1, lambda)
chain: EVQLVESGGGLVQPGGSLRLSCAASGRSFSSFQMGWFRQAPGKEREFVAASGWSGGPTYYWDSVIGRFTISTDNSKNTLYLQMNSLRAEDTAVYYCYEDRVLSGRHVRYWGQGTLVTVSSGGGGSGGGGSGGGGSEVQLVESGGGLVQPGGSLRLSCAASGRSFSSFQMGWFRQAPGKEREFVAASGWSGGPTYYWDSVIGRFTISTDNSKNTLYLQMNSLRAEDTAVYYCYEDRVLSGRHVRYWGQGTLVTVSSDKTHTCPPCPAPESTRGPSVFLFPPKPKDTLMISRTPEVTCVVVDVSHEDPEVKFNWYVDGVEVHNAKTKPREEQYNSTYRVVSVLTVLHQDWLNGKEYKCKVSNKALPAPIEKTISKAKGQPREPQVCTLPPSRDELTKNQVSLSCAVKGFYPSDIAVEWESNGQPENNYKTTPPVLDSDGSFFLVSKLTVDKSRWQQGNVFSCSVMHEALHNHYTQKSLSLSPGK
heavy: EVQLVESGGGLVQPGRSLRLSCAASGFTFNTYAMNWVRQAPGKGLEWVARIRSKYNNYATYYADSVKDRFTISRDDSKSIAYLQMNSLKTEDTAVYYCVRHGNFGNSYVSWFAYWGQGTLVTVSSASTKGPSVFPLAPSSKSTSGGTAALGCLVKDYFPEPVTVSWNSGALTSGVHTFPAVLQSSGLYSLSSVVTVPSSSLGTQTYICNVNHKPSNTKVDKKVEPKSCDKTHTCPPCPAPESTRGPSVFLFPPKPKDTLMISRTPEVTCVVVDVSHEDPEVKFNWYVDGVEVHNAKTKPREEQYNSTYRVVSVLTVLHQDWLNGKEYKCKVSNKALPAPIEKTISKAKGQPREPQVYTLPPCRDELTKNQVSLWCLVKGFYPSDIAVEWESNGQPENNYKTTPPVLDSDGSFFLYSKLTVDKSRWQQGNVFSCSVMHEALHNHYTQKSLSLSPGK
light: QTVVTQEPSLTVSPGGTVTLTCRSSTGAVTTSNYANWVQQKPGQAPRGLIGGTNKRAPGVPARFSGSLLGGKAALTLSGVQPEDEAEYFCALWYSNLWVFGGGTKLTVLGQPKAAPSVTLFPPSSEELQANKATLVCLISDFYPGAVTVAWKADSSPVKAGVETTTPSKQSNNKYAASSYLSLTPEQWKSHRSYSCQVTHEGSTVEKTVAPTECS
Molecule B1 came in with an EC50 in test [8] of 0.469 nM.

B2: BsAb-15 (bispecific antibody, human IgG1, lambda)
chain: EVQLVESGGGLVQPGGSLRLSCAASGRSFSSFQMGWFRQAPGKEREFVAASGWSGGPTYYWDSVIGRFTISTDNSKNTLYLQMNSLRAEDTAVYYCYEDRVLSGRHVRYWGQGTLVTVSSDKTHTCPPCPAPESTRGPSVFLFPPKPKDTLMISRTPEVTCVVVDVSHEDPEVKFNWYVDGVEVHNAKTKPREEQYNSTYRVVSVLTVLHQDWLNGKEYKCKVSNKALPAPIEKTISKAKGQPREPQVCTLPPSRDELTKNQVSLSCAVKGFYPSDIAVEWESNGQPENNYKTTPPVLDSDGSFFLVSKLTVDKSRWQQGNVFSCSVMHEALHNHYTQKSLSLSPGK
heavy: B1 heavy
light: B1 light
Take B2: the EC50 in test [8] was 0.743 nM. Compared with the last molecule, the EC50 is about 1.6-fold higher.

B3: BsAb-7 (bispecific antibody, human IgG1, lambda)
chain: QVQLVESGGGVVQPGGSLRLSCAASGFVLRVNTVSWYRQAPGKQRELVALITSESNEYYDDSVKGRFTISRDNAKNTIYLHMNSLKPEDTGVYFCNFITTWGQGTQVTVSSGGGGSGGGGSGGGGSQVQLVESGGGVVQPGGSLRLSCAASGFVLRVNTVSWYRQAPGKQRELVALITSESNEYYDDSVKGRFTISRDNAKNTIYLHMNSLKPEDTGVYFCNFITTWGQGTQVTVSSDKTHTCPPCPAPESTRGPSVFLFPPKPKDTLMISRTPEVTCVVVDVSHEDPEVKFNWYVDGVEVHNAKTKPREEQYNSTYRVVSVLTVLHQDWLNGKEYKCKVSNKALPAPIEKTISKAKGQPREPQVCTLPPSRDELTKNQVSLSCAVKGFYPSDIAVEWESNGQPENNYKTTPPVLDSDGSFFLVSKLTVDKSRWQQGNVFSCSVMHEALHNHYTQKSLSLSPGK
heavy: B1 heavy
light: B1 light
notes: also called BsAb-07
Turning to B3, a half-maximal effect in test [8] (EC50) was put at 0.526 nM.

B4: BsAb-11 (bispecific antibody, human IgG1, lambda)
chain: QVQLVESGGGVVQPGGSLRLSCAASGFVLRVNTVSWYRQAPGKQRELVALITSESNEYYDDSVKGRFTISRDNAKNTIYLHMNSLKPEDTGVYFCNFITTWGQGTQVTVSSDKTHTCPPCPAPESTRGPSVFLFPPKPKDTLMISRTPEVTCVVVDVSHEDPEVKFNWYVDGVEVHNAKTKPREEQYNSTYRVVSVLTVLHQDWLNGKEYKCKVSNKALPAPIEKTISKAKGQPREPQVCTLPPSRDELTKNQVSLSCAVKGFYPSDIAVEWESNGQPENNYKTTPPVLDSDGSFFLVSKLTVDKSRWQQGNVFSCSVMHEALHNHYTQKSLSLSPGK
heavy: QVQLVESGGGVVQPGGSLRLSCAASGFVLRVNTVSWYRQAPGKQRELVALITSESNEYYDDSVKGRFTISRDNAKNTIYLHMNSLKPEDTGVYFCNFITTWGQGTQVTVSSGGGGSGGGGSGGGGSEVQLVESGGGLVQPGRSLRLSCAASGFTFNTYAMNWVRQAPGKGLEWVARIRSKYNNYATYYADSVKDRFTISRDDSKSIAYLQMNSLKTEDTAVYYCVRHGNFGNSYVSWFAYWGQGTLVTVSSASTKGPSVFPLAPSSKSTSGGTAALGCLVKDYFPEPVTVSWNSGALTSGVHTFPAVLQSSGLYSLSSVVTVPSSSLGTQTYICNVNHKPSNTKVDKKVEPKSCDKTHTCPPCPAPESTRGPSVFLFPPKPKDTLMISRTPEVTCVVVDVSHEDPEVKFNWYVDGVEVHNAKTKPREEQYNSTYRVVSVLTVLHQDWLNGKEYKCKVSNKALPAPIEKTISKAKGQPREPQVYTLPPCRDELTKNQVSLWCLVKGFYPSDIAVEWESNGQPENNYKTTPPVLDSDGSFFLYSKLTVDKSRWQQGNVFSCSVMHEALHNHYTQKSLSLSPGK
light: B1 light
For B4, in test [8], the midpoint of the response, the EC50, lay at 4 nM.

B5: BsAb-6 (bispecific antibody, human IgG1, lambda)
chain: EVQLVESGGGLVQPGGSLRLSCAASYFISRFYAVGWYRQAPGKQRELVARISSGGWTYYADSVKGRFTISIDNSKNTLYLQMNSLRAEDTAVYYCNARNLWGQGTLVTVSSGGGGSGGGGSGGGGSEVQLVESGGGLVQPGGSLRLSCAASYFISRFYAVGWYRQAPGKQRELVARISSGGWTYYADSVKGRFTISIDNSKNTLYLQMNSLRAEDTAVYYCNARNLWGQGTLVTVSSDKTHTCPPCPAPESTRGPSVFLFPPKPKDTLMISRTPEVTCVVVDVSHEDPEVKFNWYVDGVEVHNAKTKPREEQYNSTYRVVSVLTVLHQDWLNGKEYKCKVSNKALPAPIEKTISKAKGQPREPQVCTLPPSRDELTKNQVSLSCAVKGFYPSDIAVEWESNGQPENNYKTTPPVLDSDGSFFLVSKLTVDKSRWQQGNVFSCSVMHEALHNHYTQKSLSLSPGK
heavy: B1 heavy
light: B1 light
notes: also called BsAb-06
Take B5: in test [8], the EC50 came to 1.18 nM.
